Assay results taken from patent US20260035432A1 (PRECIGEN, published 2026).

Assays:
[1] = molecular target: T1, Extracellular domain (ECD) of ROR1 fused to human Fc region (UniProt Q01973 30-406, limits assumed); assay: SPR, Biacore 3000; ROR1 ECD-human Fc on CM5 chip, antibody in solution
T1 construct: extracellular domain; also called ROR1-Fc; ROR1-FC; not shown: human Fc region
Experimental: Different concentrations of humanized antibodies were injected in solution phase and data was analyzed using BIAevaluation to calculate Kd of the antibodies.

[2] = molecular target: Extracellular domain (ECD) of ROR1 fused to human Fc region (UniProt Q01973); assay: as above
[3] = molecular target: Extracellular domain (ECD) of ROR1 fused to human Fc region (UniProt Q01973); assay: ROR1-Fc affinity of the construct's binding domain; method not given
ROR1-His = molecular target: T2, ROR1-His (UniProt Q01973 30-403, limits assumed); assay: ROR1-His affinity of the construct's binding domain; method not given
T2 construct: The construct is described nowhere; not shown: His tag
T2 sequence (Q01973 30-403 limits assumed): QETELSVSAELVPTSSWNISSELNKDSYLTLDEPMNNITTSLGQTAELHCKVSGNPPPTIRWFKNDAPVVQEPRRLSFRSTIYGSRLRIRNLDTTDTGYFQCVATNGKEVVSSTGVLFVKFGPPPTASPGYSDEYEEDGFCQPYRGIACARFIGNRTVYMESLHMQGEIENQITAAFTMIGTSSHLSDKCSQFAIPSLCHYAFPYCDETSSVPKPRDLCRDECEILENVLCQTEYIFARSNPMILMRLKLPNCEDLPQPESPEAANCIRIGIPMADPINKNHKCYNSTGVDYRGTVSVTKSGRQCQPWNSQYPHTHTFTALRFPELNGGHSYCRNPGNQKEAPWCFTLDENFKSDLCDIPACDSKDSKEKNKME

Extracellular domain (ECD) of ROR1 fused to human Fc region (UniProt Q01973), sequence (Q01973 30-406 limits assumed): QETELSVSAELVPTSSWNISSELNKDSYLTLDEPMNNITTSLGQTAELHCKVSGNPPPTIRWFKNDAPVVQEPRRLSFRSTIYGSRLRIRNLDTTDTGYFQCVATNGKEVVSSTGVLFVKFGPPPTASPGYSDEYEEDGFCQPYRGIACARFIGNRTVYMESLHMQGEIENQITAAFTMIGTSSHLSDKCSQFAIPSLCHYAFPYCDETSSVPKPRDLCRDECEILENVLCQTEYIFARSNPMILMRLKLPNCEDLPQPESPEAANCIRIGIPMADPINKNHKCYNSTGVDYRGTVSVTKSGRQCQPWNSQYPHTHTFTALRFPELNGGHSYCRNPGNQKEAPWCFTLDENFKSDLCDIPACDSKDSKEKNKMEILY
T1 sequence (Q01973 30-406 limits assumed): as above

Row | Binder | Kd [1] [nM] | Kd [2] [nM] | Kd [3] [nM] | Kd (ROR1-His) [nM]
1 | Clone 05 (antibody, V domains shown, Variable regions fused to mouse constant regions (chimeric mouse IgG1 mAb) for SPR; also called hROR1 VH_05 / hROR1 VL_05) VH: EVQLVESGGGLVQPGGSLRLSCAASGFTFSSYAMSWVRQAPGKGLEWVSSISRGGTTYYPDSVKGRFTISRDNSKNTLYLQMNSLRAEDTAVYYCGRYDYDGYYAMDYWGQGTLVTVSS VL: DIQMTQSPSSLSASVGDRVTITCKASPDINSYLSWYQQKPGKAPKLLIYRANRLVDGVPSRFSGSGSGTDFTLTISSLQPEDIATYYCLQYDEFPYTFGQGTKLEIK | – | 35 | 35 | 37.4
2 | Hum ROR1_18VH_(G4S)3x_VL_14 (antibody, mouse IgG1, V domains shown, The name reads as an scFv with a (G4S)3 linker; The method text says variable regions were fused to mouse constant regions (chimeric mouse IgG1); VH/VL are tied by the numbers in the name) VH: EVQLVESGGGLVQPGGSLRLSCSASGFTFSSYAMSWVRQVPGKGLVWISSISRGGTTYYADSVRGRFIISRDNAKNTLYLEMNNLRGEDTAVYYCARYDYDGYYAMDYWGQGTLVTVSS VL: DIQMTQSPSSLSASVGDRVTITCKASPDINSYLNWYQQKPGKAPKLLIYRANRLVDGVPSRFSGSGSGTDYTLTISSLQPEDFATYYCLQYDEFPYTFGAGTKVEIK | – | 0.209 | 0.201 | 0.209
3 | Hum_design_14_variant3 (antibody, V domains shown, Variable regions fused to mouse constant regions (chimeric mouse IgG1 mAb) for SPR; also called hROR1 VH_14-3 / hROR1 VL_14-3) VH: EVQLVESGGGLVQPGGSLRLSCAASGFTFSSYAMSWVRQAPGKGLEWVASISRGGTTYYADSVKGRFTISRDNSKNTLYLQMNSLRAEDTAVYYCGRYDYDGYYAMDYWGQGTLVTVSS VL: DIQMTQSPSSLSASVGDRVTITCKASPDINSYLNWYQQKPGKAPKLLIYRANRLVDGVPSRFSGSGSGTDFTLTISSLQPEDIATYYCLQYDEFPYTFGGGTKVEIK | – | 1.3 | 0.959 | 1.3
4 | Clone 16 (antibody, V domains shown, Variable regions fused to mouse constant regions (chimeric mouse IgG1 mAb) for SPR; also called hROR1 VH_16 / hROR1 VL_16) VH: EVQLVESGGGLVQPGGSLRLSCAASGFTFSSYAMSWVRQAPGKGLEWVASISRGGTTYYDPKFQDRATISADNSKNTAYLQMNSLRAEDTAVYYCGRYDYDGYYAMDYWGQGTLVTVSS VL: DIQMTQSPSSLSASVGDRVTITCKASPDINSYLNWYQQKPGKAPKVLIYRANRLVDGVPSRFSGSGSGTDYTLTISSLQPEDFATYYCLQYDEFPYTFGQGTKVEIK | 3.03 | – | – | –
5 | Hum ROR1_05VH_(G4S)3x_VL_16 (antibody, mouse IgG1, V domains shown, The name reads as an scFv with a (G4S)3 linker; The method text says variable regions were fused to mouse constant regions (chimeric mouse IgG1); VH/VL are tied by the numbers in the name) VH: EVQLVESGGGLVQPGGSLRLSCAASGFTFSSYAMSWVRQAPGKGLEWVSSISRGGTTYYPDSVKGRFTISRDNSKNTLYLQMNSLRAEDTAVYYCGRYDYDGYYAMDYWGQGTLVTVSS VL: DIQMTQSPSSLSASVGDRVTITCKASPDINSYLNWYQQKPGKAPKVLIYRANRLVDGVPSRFSGSGSGTDYTLTISSLQPEDFATYYCLQYDEFPYTFGQGTKVEIK | – | 0.337 | 0.273 | 0.337
6 | Hum_design_14_variant4 (antibody, V domains shown, Variable regions fused to mouse constant regions (chimeric mouse IgG1 mAb) for SPR; also called hROR1 VH_14-4 / hROR1 VL_14-4) VH: EVQLVESGGGLVQPGGSLRLSCAASGFTFSSYAMSWVRQAPGKGLEWVASISRGGTTYYPDSVKGRFTISRDNVRNILYLQMSSLRSEDTAMYYCGRYDYDGYYAMDYWGQGTLVTVSS VL: DIQMTQSPSSLSASVGDRVTITCKASPDINSYLNWYQQKPGKAPKLLIYRANRLVDGVPSRFSGSGSGTDYTLTISSLQPEDFATYYCLQYDEFPYTFGAGTKVEIK | – | 0.408 | 0.284 | 0.408
7 | Hum_design_14_variant5 (antibody, V domains shown, Variable regions fused to mouse constant regions (chimeric mouse IgG1 mAb) for SPR; also called hROR1 VH_14-5 / hROR1 VL_14-5) VH: EVQLVESGGGLVQPGGSLRLSCATSGFTFSSYAMSWMRKAPGKGLEYVASISRGGTTYYADSVKGRFTISVDKSKNTLYLQMNSLRAEDTAVYYCGRYDYDGYYAMDYWGQGTLVTVSS VL: DIQMTQSPSSLSASVGDRVTITCKASPDINSYLNWYQQKPGKAPKLLIYRANRLVDGVPSRFSGSGSGTDYTLTISSLQPEDFATYYCLQYDEFPYTFGAGTKVEIK | 4.52 | – | – | –

More lines, now with the values ahead:

Row | Kd [1] [nM] | Kd [2] [nM] | Kd [3] [nM] | Kd (ROR1-His) [nM] | Binder
8 | 131 | – | – | – | Hum ROR1_14VH_(G4S)3x_VL_16 (antibody, mouse IgG1, V domains shown, The name reads as an scFv with a (G4S)3 linker; The method text says variable regions were fused to mouse constant regions (chimeric mouse IgG1); VH/VL are tied by the numbers in the name) VH: EVQLVESGGGLVQPGGSLRLSCATSGFTFSSYAMSWMRQAPGKGLEWVASISRGGTTYYADSVKGRFTISVDKSKNTLYLQMNSLRAEDTAVYYCGRYDYDGYYAMDYWGQGTLVTVSS VL: DIQMTQSPSSLSASVGDRVTITCKASPDINSYLNWYQQKPGKAPKVLIYRANRLVDGVPSRFSGSGSGTDYTLTISSLQPEDFATYYCLQYDEFPYTFGQGTKVEIK
9 | 4.08 | – | – | – | Hum ROR1_07VH_(G4S)3x_VL_16 (antibody, mouse IgG1, V domains shown, The name reads as an scFv with a (G4S)3 linker; The method text says variable regions were fused to mouse constant regions (chimeric mouse IgG1); VH/VL are tied by the numbers in the name) VH: EVQLVESGGGLVQPGGSLRLSCAASGFTFSSYAIIWVRQAPGKGLEWVARISRGGTTRYADSVKGRFTISADTSKETAYLQMNSLRAEDTAVYYCGRYDYDGYYAMDYWGQGTLVTVSS VL: DIQMTQSPSSLSASVGDRVTITCKASPDINSYLNWYQQKPGKAPKVLIYRANRLVDGVPSRFSGSGSGTDYTLTISSLQPEDFATYYCLQYDEFPYTFGQGTKVEIK
10 | – | 1.45 | – | 1.45 | Clone 14 (antibody, V domains shown, Variable regions fused to mouse constant regions (chimeric mouse IgG1 mAb) for SPR; also called hROR1 VH_14 / hROR1 VL_14) VH: EVQLVESGGGLVQPGGSLRLSCATSGFTFSSYAMSWMRQAPGKGLEWVASISRGGTTYYADSVKGRFTISVDKSKNTLYLQMNSLRAEDTAVYYCGRYDYDGYYAMDYWGQGTLVTVSS VL: DIQMTQSPSSLSASVGDRVTITCKASPDINSYLNWYQQKPGKAPKLLIYRANRLVDGVPSRFSGSGSGTDYTLTISSLQPEDFATYYCLQYDEFPYTFGAGTKVEIK
